Reference: paper PMC6579465, “The priming factor CAPS1 regulates dense-core vesicle acidification by interacting with rabconnectin3β/WDR7 in neuroendocrine cells” (The Journal of Biological Chemistry, 2019)

Target: T1, CAPS1 (calcium-dependent activator protein for secretion, CADPS) (rat (endogenous in rat brain), UniProt Q62717 1-1289)
T1 construct: CAPS1 (CADPS), endogenous protein of rat brain; Precipitated with a rabbit polyclonal CAPS peptide antibody and eluted with the 21-mer peptide immunogen; source: endogenous, rat brain crude synaptosomal membrane fraction, solubilized in 1% Triton X-100
T1 sequence (Q62717 whole entry): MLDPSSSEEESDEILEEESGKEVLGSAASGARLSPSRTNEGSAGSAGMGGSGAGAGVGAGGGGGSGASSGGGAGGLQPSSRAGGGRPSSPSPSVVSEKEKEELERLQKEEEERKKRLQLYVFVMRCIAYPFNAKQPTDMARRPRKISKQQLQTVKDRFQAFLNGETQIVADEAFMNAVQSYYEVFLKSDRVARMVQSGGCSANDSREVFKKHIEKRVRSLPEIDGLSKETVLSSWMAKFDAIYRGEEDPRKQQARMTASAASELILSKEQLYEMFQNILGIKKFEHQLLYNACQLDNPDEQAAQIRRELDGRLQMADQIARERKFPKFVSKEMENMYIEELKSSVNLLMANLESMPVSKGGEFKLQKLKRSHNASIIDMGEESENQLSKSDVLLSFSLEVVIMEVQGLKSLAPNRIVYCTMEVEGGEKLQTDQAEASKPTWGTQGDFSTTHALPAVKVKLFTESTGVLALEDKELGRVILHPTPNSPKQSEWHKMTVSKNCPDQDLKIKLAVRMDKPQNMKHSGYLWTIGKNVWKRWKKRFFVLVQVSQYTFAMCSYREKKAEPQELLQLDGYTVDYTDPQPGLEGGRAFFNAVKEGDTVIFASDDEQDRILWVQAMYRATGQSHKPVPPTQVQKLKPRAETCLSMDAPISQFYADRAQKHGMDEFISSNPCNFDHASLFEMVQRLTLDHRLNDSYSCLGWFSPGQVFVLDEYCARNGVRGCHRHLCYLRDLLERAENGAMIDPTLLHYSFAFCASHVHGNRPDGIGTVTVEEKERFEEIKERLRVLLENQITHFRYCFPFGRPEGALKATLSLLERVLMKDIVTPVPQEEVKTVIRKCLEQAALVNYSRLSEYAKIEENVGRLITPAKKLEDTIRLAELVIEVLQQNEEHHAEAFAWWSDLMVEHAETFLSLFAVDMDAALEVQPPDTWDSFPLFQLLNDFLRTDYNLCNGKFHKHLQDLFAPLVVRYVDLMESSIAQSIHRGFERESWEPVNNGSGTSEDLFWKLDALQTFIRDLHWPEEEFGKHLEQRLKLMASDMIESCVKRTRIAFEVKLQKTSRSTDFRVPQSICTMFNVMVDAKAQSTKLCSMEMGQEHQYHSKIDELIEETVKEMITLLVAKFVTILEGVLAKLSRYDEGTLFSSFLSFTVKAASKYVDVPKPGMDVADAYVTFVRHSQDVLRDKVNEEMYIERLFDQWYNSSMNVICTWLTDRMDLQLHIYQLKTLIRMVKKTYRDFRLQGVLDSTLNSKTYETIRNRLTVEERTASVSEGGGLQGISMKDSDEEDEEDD
Test: affinity purification with mass spectrometry; CAPS1 immunoprecipitate of detergent extract resolved by SDS-PAGE; Coomassie-stained bands seen in the CAPS1 but not the control immunoprecipitate excised, in-gel digests, LC-MS/MS
Settings: partners not purified

B1: Rabconnectin3β (Rbcn3β) / WD repeat domain 7 (WDR7) (natural protein, rat (endogenous in rat brain), UniProt Q9ERH3 1-1488, looked up)
chain: MAGNSLVLPIVLWGRKAPTHCISSILLTDDGGTIVTGCHDGQICLWDLSEELEVNPRALLFGHTAAITCLSKACASGDKQYTVSASANGEMCLWDVNDGRCIEFTKLACTHTGIQFYQFSVGNQREGRLLCHGHYPEILVVDATSLEVLYSLVSKISPDWISSMSIIRSHRTQEDTVVALSVTGILKVWIVTSEISGLQDTEPIFEEESKPIYCQNCQSLSFCAFTQRSLLVVCSKYWRVFDAGDYSLLCSGPSEDGQTWTGGDFVSADKVIIWTENGQSYIYKLPASCLPASDSFRSDVGKAVENLIPPVQHSLLDQKDRELVICPPVTRFFYGCKEYLHKLLIQGDSSGRLSIWNIADIADKQEANEGLKTTTCISLQDAFDKLKPCPAGIIDQLSVIPNSNEPLKVTASVYIPAHGRLVCGREDGSIIIVPATQTAIVQLLQGEHMLRRGWPPHRTLRGHRNKVTCLLYPHQVSARYDQRYLISGGVDFSVIIWDIFSGEMKHIFCVHGGEITQLLVPPENCSARVQHCVCSVASDHSVGLLSLREKKCIMLASRHLFPIQVIKWRPSDDYLVVGCTDGSVCVWQMDTGALDRCAMGITAVEILNACDEAVPAAVDSLSHPAVNLKQAMTRRSLAALKNMAHHKLQTLATNLLASEASDKGNLPKYSHNSLMVQAIKTNLTDPDIHVLFFDVEALIIQLLTEEASRPNTALISPENLQKASGSSDKGGSFLTGKRAAVLFQQVKETIKENIKEHLLDEEEDEEEVMRQRREESDPEYRASKSKPLTLLEYNLTMDTAKLFMSCLHAWGLNEVLDEVCLDRLGMLKPHCTVSFGLLSRGGHMSLMLPGYNQAAGKLLQAKAEAGRKGPATESVGKGTYTVSRAVTTQHLLSIISLANTLMSMTNATFIGDHMKKGPTRPPRPGTPDLSKARDSPPASSNIVQGQIKQAAAPVSARSAADHSGSASASPALRTCFLVNEGWSQLAAMHCVMLPDLLGLGKFRPPLLEMLARRWQDRCLEVREAAQALLLAELRRIEQAGRKETIDTWAPYLPQYMDHVISPGVTAEAMQTMAAAPDASGPEAKVQEEEHDLVDDDITTGCLSSVPQMKKMSTSYEERRKQATAIVLLGVIGAEFGAEIEPPKLLTRPRSSSQIPEGFGLTSGGSNYSLARHTCKALTFLLLQPPSPKLPPHSTIRRTAIDLIGRGFTVWEPYMDVSAVLMGLLELCADAEKQLANITMGLPLSPAADSARSARHALSLIATARPPAFITTIAKEVHRHTALAANTQSQQSIHTTTLARAKGEILRVIEILIEKMPTDVVDLLVEVMDIIMYCLEGSLVKKKGLQECFPAICRFYMVSYYERSHRIAVGARHGSVALYDIRTGKCQTIHGHKGPITAVSFAPDGRYLATYSNTDSHISFWQMNTSLLGSIGMLNSAPQLRCIKTYQVPPVQPASPGSHNALRLARLIWTSNRNVILMAHDGKEHRFMV
notes: Rabconnectin3β / WDR7, endogenous protein of rat brain; also called Rabcn3β; Rbcn3β/WDR7; source: endogenous, rat brain crude synaptosomal membrane fraction, solubilized in 1% Triton X-100
Question: With B1 as the binder, how does the “stoichiometry relative to CAPS1 (bands of the immunoprecipitate)” value read?
Answer: 0.167 Rbcn3 subunit : CAPS1
